According to patent publication US20120052092A1:

What was measured:
[1] = biological target: factor H binding protein (wild type, variant 1) (UniProt E6MV22); assay: SPR; sensorgram
[2] = biological target: factor H binding protein (wild type, variant 1) (UniProt E6MV22); assay: SPR
[3] = biological target: fHbp Variant 3 (Neisseria meningitidis); assay: SPR
[4] = biological target: fHbp Variant 2 (Neisseria meningitidis); assay: SPR

fH678, sequence (P08603 321-509): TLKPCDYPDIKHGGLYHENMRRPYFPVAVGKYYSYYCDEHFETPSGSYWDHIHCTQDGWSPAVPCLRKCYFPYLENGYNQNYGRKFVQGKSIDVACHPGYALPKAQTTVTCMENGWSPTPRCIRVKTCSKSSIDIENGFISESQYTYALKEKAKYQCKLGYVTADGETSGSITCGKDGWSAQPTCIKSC

Row | Substance | Kd [1] | Kd [2] | Kd [3] | Kd [4]
1 | fH678 (from UniProt P08603 321-509) | 4.69 nM | 5 nM |  | 
2 | FH67 N339E M340S |  |  | 165 nM | 44 nM
